# Data from paper PMC3748058 (2013).
# B1: GFP lamin A WT [human] / GST Nesprin-2 SR52,53 [human] (parent complex)
# chain 1: METPSQRRATRSGAQASSTPLSPTRITRLQEKEDLQELNDRLAVYIDRVRSLETENAGLRLRITESEEVVSREVSGIKAAYEAELGDARKTLDSVAKERARLQLELSKVREEFKELKARNTKKEGDLIAAQARLKDLEALLNSKEAALSTALSEKRTLEGELHDLRGQVAKLEAALGEAKKQLQDEMLRRVDAENRLQTMKEELDFQKNIYSEELRETKRRHETRLVEIDNGKQREFESRLADALQELRAQHEDQVEQYKKELEKTYSAKLDNARQSAERNSNLVGAAHEELQQSRIRIDSLSAQLSQLQKQLAAKEAKLRDLEDSLARERDTSRRLLAEKEREMAEMRARMQQQLDEYQELLDIKLALDMEIHAYRKLLEGEEERLRLSPSPTSQRSRGRASSHSSQTQGGGSVTKKRKLESTESRSSFSQHARTSGRVAVEEVDEEGKFVRLRNKSNEDQSMGNWQIKRQNGDDPLLTYRFPPKFTLKAGQVVTIWAAGAGATHSPPTDLVWKAQNTWGCGNSLRTALINSTGEEVAMRKLVRSVTVVEDDEDEDGDDLLHHHHGSHCSSSGDPAEYNLRSRTVLCGTCGQPADKASASGSGAQVGGPISSGSSASSVTVTRSYRSVGGSGGGSFGDNLVTRSYLLGNSSPRTQSPQNCSIM
# chain 2: SRFEDWLKSAERTAACPNSSEVLYTSAKEELKRFEAFQRQIHERLTQLELINKQYRRLARENRTDTASRLKQMVHEGNQRWDNLQRRVTAVLRRLRHFTNQREEFEGTRESILVWLTEMDLQLTNVEHFSESDADDKMRQLNGFQQEITLNTNKIDQLIVFGEQLIQKSEPLDAVLIEDELEELHRYCQEVFGRVSRFHRRL
# Variants of: B1
# Assay: GST pull-down, western blot quantification; COS7 cell lysates; four to seven independent experiments; parent: 0; read off a plot
row,Variant,screen value
1,chain 1 G411D,~11%
2,chain 1 G413C,~-22%
3,chain 1 L421P,~-29%

# Second part, the variant after the results:
row,screen value,Variant
1,~-10%,chain 1 R419C
2,~55%,chain 1 V415I
3,~51%,chain 1 R401C
4,~-15%,chain 1 R427G
